Changes are numbered by the printed parent chain.

For series [1] the following is noted: four 100 mg/kg Tet doses in 8 h intervals.
Series [2] in a line: Tet plasma concentration in the mIL-12 time course study. The conditions noted are these: female, C57Bl/6, mouse, in vivo.
Series [3] deals with IL-12 and IFNγ plasma levels, body weight, liver enzymes. The series can be described thus: Dose-finding study to determine PK and safety of Tet-switch-controlled IL-12 (FIG. 18). The conditions noted are these: 30 mg/kg i.p. twice daily for 5 consecutive days.
For series [4], the system named is eGFP expression in HEK293 cells. The series can be described thus: Tet-dependent eGFP expression from K19 constructs in transfected HEK293 cells. Conditions: HEK293, independent of Tet.
The subject of series [5] is eGFP and sNLuc expression in HEK293 cells. The series can be described thus: K19 riboswitch kinetics in HEK293 cells (qPCR, fluorescence, Western blot, sNLuc).

Regarding `CN(C)[C@@H]1C(O)=C(C(N)=O)C(=O)[C@@]2(O)C(O)=C3C(=O)c4c(O)cccc4[C@@](C)(O)[C@H]3C[C@@H]12` [Tet, tetracycline], the “other signs of toxicity” value in series [1] is given as “no other signs of toxicity were observed”. Besides, the concentration at 8 h in series [2] (10 mg/kg) amounted to 0.1 µM; in series [2] (30 mg/kg) it was 0.75 µM. Moreover, in series [3], the “tolerability of Tet (in words)” value is reported as “well tolerated”.

B1: catalytically inactive K19 switch: control plasmid harboring a catalytically inactive, non-cleaving K19 switch (SEQ ID No. 45) (nucleic acid)
chain: GGCGCGTCCTGGATTCGTGGTAAAACATACCAGATTTCGATCTGGAGAGGTGAAGAATACGACCACCTACTACATCCAGCTGATGAGTCCCAAATAGGACGAGACGCGCT
modifications: the letters are possibly those of the target site
Regarding B1, in series [4], the “steady eGFP expression level, of constitutive signal” value is reported as “about 90%”.

B2: K19: Tet-responsive aptazyme: tetracycline aptamer plus hammerhead ribozyme N79 (Beilstein et al. 2015), SEQ ID NO:9/10; tested in active-switch plasmids (nucleic acid)
chain 1: B1 chain with G103A
chain 2: GGCGCGUCCUGGAUUCGUGGUAAAACAUACCAGAUUUCGAUCUGGAGAGGUGAAGAAUACGACCACCUACUACAUCCAGCUGAUGAGUCCCAAAUAGGACGAAACGCGCU
modifications: chemistry not fully specified; one strand in two spellings; the letters are possibly those of the target site
Turning to B2, in series [5] (HEK293, 50 μM Tet), the “onset of eGFP expression induction on the mRNA level after Tet addition” value is 15 min, the “onset of increase in direct eGFP fluorescence signal after Tet addition” value is on record as “two” and the “time to full induction on the mRNA level” value is given as “four”. Besides, in series [5] (HEK293 previously grown in presence of Tet), the “reversibility upon Tet retraction (in words)” value is on record as “relative decrease in sNLuc expression was observed”. Moreover, in series [5] (HEK293 supernatant), the “Tet-induced sNLuc increase detected after addition” value was found to be 2 h and the “time to saturation of sNLuc increase” value fell in the range of 4 to 8 h.

For the origin of these results see patent US20240076689A1, “VIRAL VECTORS AND NUCLEIC ACIDS FOR REGULATED GENE THERAPY” (Boehringer Ingelheim International GmbH, priority 2020, published 2024).
